Assay results reported in the supplement of paper PMC10567573.

B1: TAF7L (parent)
chain: PDVENEVKRLLRSDAEAVSTRWEV
B2: CCND2 (parent)
chain: YFKCVQKDIQPYMRRMVATWMLEV

Variants of: B1
Test: protein stability index of a GFP-peptide fusion (GPS, HEK-293T) (PSI 1-6); higher = more stable
Conditions: c terminus: a fixed tail appended
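Also: lentivirally expressed fusions sorted by FACS into six bins by GFP to DsRed ratio, PSI derived from sequencing read proportions per bin multiplied by bin number.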

Protein stability index: each site, then its substitutions
R21: L 2.86 | S 2.95 | Q 4.18 | T 3.06 | H 3.58 | K 3.76 | C 2.61 | F 2.53 | G 4.36 | A 3.19 | E 5.41 | Y 2.51 | D 5.01 | I 2.96 | P 3.87 | V 3.2 | M 3.61 | N 4.93
V24: G 4.61 | D 4.24 | A 4.61 | N 5.33 | M 4.29 | R 4.36 | C 4.15 | T 4.31 | Y 3.51 | E 4.13 | P 4.63
E23: M 2.4 | P 3.2 | L 2.29 | C 2.83 | H 3.56 | I 2.59 | G 3.86 | Q 2.68 | A 3.52 | R 2.75 | S 2.53 | K 3.59 | T 2.96 | Y 2.56
T20: M 2.26 | D 2.76 | V 2.39 | I 2.12 | Q 3.34 | L 2.29 | K 3.85 | R 3.29 | Y 2.43 | S 3.32 | P 2.15 | H 2.22 | E 3.99 | A 4.18 | N 3.28 | F 2.74
W22: C 3.63 | Q 5.11 | A 5.26 | F 3.83 | V 4.21 | N 5.45 | H 4.79 | L 4.8 | I 4.49 | D 5.66 | R 4.92 | P 4.92 | E 5.52 | G 5.31 | T 5.07
S19: M 2.48 | P 3.75 | I 3.03 | Y 2.08

Variants of: B2
Test: as above
Conditions: c terminus: a fixed tail appended

Protein stability index: each site, then its substitutions
R14: W 1.74 | N 2.06 | A 3.47 | Q 1.73 | S 3.39 | G 2.28 | P 3.71 | L 4.22 | K 1.44 | T 4.32 | Y 3.2 | D 2.16 | V 2.55 | C 2.77 | I 2.63 | E 2.24
K7: V 3.05 | D 1.91 | E 4.8 | L 2.56 | Y 2.54 | I 3.33 | N 2.66 | H 4.29 | T 3.22 | R 2.69 | Q 2.1 | S 3.21 | P 2.48 | W 2.12 | F 1.98 | G 2.97 | M 2.53
Y12: Q 3.19 | P 1.89 | R 4.86 | I 2.54 | W 2.43 | N 2.38 | M 5.01 | T 2.66 | K 3.07 | H 2.54 | V 3.11 | A 3.33 | L 3.19 | D 3.35 | C 2.89 | S 2.83
Y1: C 1.94 | L 2.14 | R 1.87 | S 2.85 | V 3.34 | K 3.54 | M 2.11 | I 2.47 | T 2.37 | A 3.09 | D 2.58 | W 2.82 | F 2.3 | H 3.71 | P 1.71 | Q 3.55 | N 2.23 | E 1.88
P11: W 3.21 | D 2.22 | C 2.36 | S 2.5 | E 2.85 | Y 2.74 | V 2.82 | H 4.06 | N 2.54 | Q 3.25 | F 3.77 | I 2.9 | K 2.82 | T 2.34 | M 3.69
Q10: G 2.42 | W 3.11 | M 2.06 | A 3.8 | H 2.84 | I 3.17 | C 3.12 | F 1.99 | E 2.32 | N 3.3 | R 2.02 | V 2.5 | L 2.64 | D 2.77 | S 3.22 | P 3.81 | T 2.71 | Y 3.78 | K 3.06
K3: M 2.96 | N 2.9 | H 3.13 | L 2.71 | Q 2.12 | A 2.64 | E 3.31 | D 3.48 | I 2.78 | V 3.12 | W 2.44 | G 1.86 | Y 3.04 | P 2.33 | S 3.75 | T 3.31 | C 2.89
M16: H 2.35 | G 3.04 | E 2.45 | A 3.12 | L 3.06 | F 3.28 | I 3.33 | D 2.09 | K 2.67
V5: N 2.54 | L 2.71 | Y 4 | A 2.25 | S 1.43 | K 2.25 | C 2.36 | R 4.02 | G 1.47 | H 2.23 | M 2.48 | I 2.92 | W 2.9 | D 2.41 | E 2.58 | F 2.7 | T 3.62 | Q 2.37 | P 3.14
C4: G 2.21 | Q 1.44 | V 3.69 | N 3.42 | R 2.25 | E 1.28 | P 2.44 | S 3.14 | Y 3.12 | K 2.45 | I 2.84 | T 1.74 | A 2.47 | H 2.37 | F 4.64 | W 3.23 | M 2.81
M13: G 2.58 | I 3.3 | Y 3.66 | C 2.43 | K 3.64 | V 1.66 | R 2.42 | D 2.8 | A 3.23 | F 3.07 | T 2.96 | E 2.88 | H 2.92 | Q 2.65
F2: R 2.33 | T 2.61 | E 4.07 | K 2.95 | N 2.66 | L 2.85 | S 3.5 | M 1.89 | A 2.97 | G 3.84 | V 2.15 | D 2.15 | W 2.75 | I 2.9 | Q 3.63 | C 2.61 | Y 2.68
I9: T 3.39 | V 1.06 | Q 2.61 | K 1.52 | H 2.78 | Y 3.57 | G 3.25 | D 2.71 | C 2.51 | P 3.18 | R 1.77 | E 3.71 | M 3.79 | F 2.47 | L 3.16 | S 3.49
Q6: A 1.97 | N 1.9 | T 2.38 | S 2.37 | L 2.53 | P 2.49 | G 2.47 | W 1.64 | R 2.65 | K 3.15 | E 3.62 | V 1.79 | C 3.44 | D 2.65 | F 2.07 | I 1.91 | Y 2.64
R15: I 2.75 | W 3.97 | A 1.77 | F 4.08 | C 3.12 | S 2.55 | Y 2.81 | N 3.95 | G 2.35 | H 2.75 | V 3.01 | P 3.69 | E 3.42 | D 3.42 | K 2.36 | L 2.33
D8: N 2.16 | P 3.13 | S 3.28 | I 2.58 | E 2.37 | T 2.37 | W 2.03 | Y 3.53 | G 3.98 | C 2.87 | K 2.94 | L 2.05 | H 2.21
